This assay addresses SUMO1 (construct transfected into HSW cells in Example 8) (human) (UniProt P63165). Description: cell-based or functional assay.
Chain of UniProt P63165 (P63165 2-97 limits assumed): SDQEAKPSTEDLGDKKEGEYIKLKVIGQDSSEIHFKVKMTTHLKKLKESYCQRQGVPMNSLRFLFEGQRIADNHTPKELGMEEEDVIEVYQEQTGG

As to “N-terminal deleted BACE1-CTF (BACE1 C-terminal fragment, residues 456-501) (peptide)”, the Aβ production (secreted Aβ levels by ELISA, HSW cells) came out at 25 % reduction.
